Data as given in the DeepSol protein solubility set.

assay: soluble on expression in E. coli; label from the status in PepcDB or PDB records

Sequence	soluble on expression in E. coli
MSDYLSVSSLTKYLKLKFDRDPYLERVYLTGQVSNFRRRPNHQYFSLKDEKAVIQATMWSGIYRKLGFELEEGMKINVIGRVQLYEPSGSYSIIIEKAEPDGIGALAVQFEQLKKKLAEAGYFDDRHKQRLSQFVKKIGVVTSPSGAVIRDIITTVSRRFPGVDILLFPTKVQGEGAAQEVADNIRLANERTDLDLLIVGRGGGSIEDLWAFNEEIVVQAIFESHLPIISSVGHETDTTLADFAADRRAATPTAAAELATPVTKADLLAFLKERQMRSYQAVMRLIRQKDEQVKKLQRSVIFRQPERLYDAYVQKLDHLRTHLLTKVRQVYDVYDSKEHLLRQRLLSFNLSGCIQRYQAQLKQDQRLLLSHMSSQYDSKLARFEKAQDALLSLDTTRIVARGYAIVQKDNHIIQSTQQIKKGDRLHLEMKDGQVQVEVENVKQEENI	not soluble
MGSDKIHHHHHHMPLVLIRKSDYSYETLKPLIFGMLDRLGGHRMAPGSRVLIKPNLLTPATPRQAILTHPFIVRAAVEYALNQNARPLVADSPAMGSFSKILRDSGIQEALAPLKVDYRPFQDSLKIDIGEPFGSIDIAREVIEADFIINLPKFKTHSQMLLTLGVKNLFGCIVGYRKPEWHMKTGVNRPLFARLLVQLYHRISPAFTILDGILALEGEGPGKRGTPKGGWPAPRQRQRPGPRQDRLPDT	not soluble
MGHHHHHHSHMADIPSFQGTTLTRDTVRQLVSDIFIYKMPFNIELGLELQQFEADKAVLTFARQDKLIGNAAQKILHGGVIAAGLDVAAGLVCVGNTLLRHETISDQEFHHRLARMGTIDMRVDYLRPGYGERFTITSTLLRGGNKIAVARAELHNEQGSHLASATATYIVG	soluble
MSLKALIIMDMTNDFVFEKYEHEGKEYEGRLVAPLGKTIVEPIEALVKKVVNSGTVSLFRISKDHYDAFTNPELELKVAELGIDEVFMTGLVDEVCIYHNTLGFLERGFRTNVVRGCTAPFDPEKGRESLGELDACGTKMVDDIPSDIGVILLLEDEHDENSEEIKSGSWPPHSMKGTPGALTIKPIREALESREGHHHHHH	soluble
MVHYKLSYFPIRGAGEVIRQIFVYAGQSFEDHRISIEEWAAVKPTTPFGQLPLLEVDGKVLPQSHSIARFLARQFGINGKCAWEEAQVNSIADQFKDYRNEVRPYVMVKMGFAEGDLDALSKDVFLPGFKKHYGFIYNFLKTAGSGYLVGDSLTFVDLLIAQHTADILSTDPALLEEFPQFKAHQEKVHSNANIKKWLETRPETQF	not soluble
MGHHHHHHSHMDNAEAQFTTALRLTNHQELWAFIVTNLASVYIREGNRHQEVLYSLLERINPDHSFPVSSHCLRAAAFYVRGLFSFFQGRYNEAKRFLRETLKMSNAEDLNRLTACSLVLLGHIFYVLGNHRESNNMVVPAMQLASKIPDMSVQLWSSALLRDLNKACGNAMDAHEAAQMHQNFSQQLLQDHIEACSLPEHNLITWTDGPPPVQFQAQNGPNTSLASLL	not soluble
MASALRPPRVPKPKGVLPSHYYESFLEKKGPCDRDYKKFWAGLQGLTIYFYNSNRDFQHVEKLNLGAFEKLTDEIPWGSSRDPGTHFSLILRNQEIKFKVETLECREMWKGFILTVVELRVPTDLTLLPGHLYMMSEVLAKEEARRALETPSCFLKVSRLEAQLLLERYPECGNLLLRPSGDGADGVSVTTRQMHNGTHVVRHYKVKREGPKYVIDVEQPFSCTSLDAVVNYFVSHTKKALVPFLLDEDYEKVLGYVEADKENGENVWVAPSAPGPGPAPCTGGPKPLSPASSQDKLPPLPPLPNQEENYVTPIGDGPAVDYENQDVASSSWPVILKPKKLPKPPAKLPKPPVGPKPEPKVFNGGLGRKLPVSSAQPLFPTAGLADMTAELQKKLEKRRALEH	soluble
MKRTPLFEKHVELGAKMVDFAGWEMPLYYTSIFEEVMAVRKSVGMFDVSHMGEFLVKGPEAVSFIDFLITNDFSSLPDGKAIYSVMCNENGGIIDDLVVYKVSPDEALMVVNAANIEKDFNWIKSHSKNFDVEVSNISDTTALIAFQGPKAQETLQELVEDGLEEIAYYSFRKSIVAGVETLVSRTGYTGEDGFELMLEAKNAPKVWDALMNLLRKIDGRPAGLGARDVCRLEATYLLYGQDMDENTNPFEVGLSWVVKLNKDFVGKEALLKAKEKVERKLVALELSGKRIARKGYEVLKNGERVGEITSGNFSPTLGKSIALALVSKSVKIGDQLGVVFPGGKLVEALVVKKPFYRGSVRREV	soluble
MDGEELREDLKEKGKTMDNDLKKSLKEAPSESYCYVLINPYVLDKDVREVDLATFLSSIFYVGKGKGERAMAYFKDACGNIQGSRKLTTIDQAWNKKGFVYKHIIWRPIIENLALAREAAMIFFFKNLAGKSNFTNKYNGSFKGESAFWSREEKCNYGVYLLETIHRSIQTNGCETVKKEDVAPRAAIQQSPRL	not soluble
MAHHHHHHMNDETKVFNKCFKKISNCYTLNKKGEKENSTGNQFVLHNCIQTLLSDPIVVLYTDNNYICTGSLTGKVCLYKITIKENKETNTNISYVYNNNNNITDDEKKCINDLNNREELKKENYSKSTIDDVVISKKELNNHNNINNNNNNNNNNNNNSEIIKKYHILCMFRNNSIKSIYIDKNNIYICYESCIDVFCVRSYQFIQKINLDVTNNKQVIYYENYILFNNSKSLFIYDITSNFSSYFYKNFLKNIVIFDFNINYLLCYKNNFGKCHIRVLQIFADAQKCEHELIFCVDFSSKFISHGKFLDDEKIIVAKNGKRLIIFDFKKAIDMYRIRKLKKKILDIHKSVENMLFILVENQIFIFNLSTFVFYKTVQLPKGLFYFKWSYFIRYKNRKIIFSSDKGVYYIDYSIEENV	soluble
MGSDKIHHHHHHMFTSFAFVTGAFVLFGCDNGRNSDTICKNNPELCEDLHKDSWCRYEKGDLIRQRFILKTTPNPTGKQIYDQLRFLEVYSKCIELASGVQHKVNVQRTNDRLRAFGISVQNLEELQESTKGSQDPYLAYYHWSRLDDAKSLAVLIKAEKEGQISDPELLSKLAIYYLKTDAARAKKLYLDVLGMVDADHLDPDWLLGLATASRTLGDLDGSYLYSRANIALTKQSVNEAQMLALLTGDKTKAAMLDSEAEQLAKAVSSGNFAGSAIEKRLRAEIDTERAKIEPVAPLAQD	not soluble
MSREANPFKKMPTILMPDELMAKALRRGEKVANEMRQKELPWLLKARFVEEHKVRTIASVVADNLQKVIDKTPPVRKLPKFYQEMVEVLVGIDDFKKSMGAFKWASELVRKLGNEYARKIRKARTPQQAGKLRKEFVGRVKSILEQIHPEMAFVAVAREKLKDLPTFKDLPTVVIAGYPNVGKSTLLKKLTGADVEINSYPFTTKGINVGYIGEIQMVDTPGLLDRPLYERNDIELQAILALNYLANLILFIIDASEFCGYTIEEQINLLKEIKDLFKAPIVVAINKIDLVDEERVKEIEEKLKEVGIEEILKISADKDIGLDELKERLKKIAIKEFLKDKDAENKELECLEHHHHHH	soluble
RLKALRKEQGKALKKDKKLAEPKARVYVLDFDGDIKASATESMRHEITALLTLATDKDEVVLRLESGGGMVHSYGLASSQLARIRQAGIPLTVCIDKVAASGGYMMACIGNKIISAPFAILGSIGVVAQLPNVNRLLKKHDIDFEVLTAGEYKRTLTVFGENTEKGREKFQQDLDITHDLFKNFVASYRPQLSIDEVATGEVWLGMAAVDKLLVDELKTSDE	not soluble
MPKASQETKGLGSYDPKSATEKKFVITHRIKNISTLNIGNTYTSDVEDHFGFLWHLSYIYDGRFLRTTLNIDVNGRSALWSVGMKVRHMFVTKNGADHFHNSTDHVFSQEHNYGLTAITFFEDIKNKIFDDDMVYVDVEVTITKTSGFDRKKLRNFDTPENDWHVVLVAGGQKFYARTVVICNPNTDICELDVARGTEIVLENEDPLDLQIFLEALHGEDVISDTTLEIILLLAIKYRAIEIFSKCEKWLLEGSKMSPRKQLQMAIRCSFWELEQKCLSELKTKQDIQAVLPANLMSLDPNMVLTLFEKLLTVT	soluble
IFSEINIDPTKRVLLYAPTWKTNSSDDDIFPINEQLLKHYNVIYKGHVESKNDLVPEGVIIPPNNIETQDLIIISDVVLTDYSSIIFDALTVDKKGCLYTPNHSQYVEERGVYQDVMDTLKPIWYTDAELLINDLITDSIPQLNNKYTNKNNQSFEYISKLISN	not soluble
MSVFSLKIDIADNKFFNGETSPLFSQSQAKLARQFHQKIAGYRPTPLCALDDLANLFGVKKILVKDESKRFGLNAFKMLGGAYAIAQLLCEKYHLDIETLSFEHLKNAIGEKMTFATTTDGNHGRGVAWAAQQLGQNAVIYMPKGSAQERVDAILNLGAECIVTDMNYDDTVRLTMQHAQQHGWEVVQDTAWEGYTKIPTWIMQGYATLADEAVEQMREMGVTPTHVLLQAGVGAMAGGVLGYLVDVYSPQNLHSIIVEPDKADCIYRSGVKGDIVNVGGDMATIMAGLACGEPNPLGWEILRNCATQFISCQDSVAALGMRVLGNPYGNDPRIISGESGAVGLGVLAAVHYHPQRQSLMEKLALNKDAVVLVISTEGDTDVKHYREVVWEGKHAVAP	not soluble
MCDIGNRQAYQRAQLDALLGRVRLQANQMEWRPGIYVGEGTTIASSAQLEPPLWIGQHCYIGEEVQLKAGTVIGDESRIEAGACLDRAVVWNRVQIGQRSHLEGCVLEHHHHHH	not soluble
MKLNAIHHVAIIVSDYHLSKDFYVNKLGFEIIRENYRPDKHDYKLDLSCGRIELEIFGKVTSDPNYQAPPKRVSEPEFKSEACGLRHLAFRVTNIESYVDDLKSLGIPVEPIRHDDYTGEKMTFFFDPDGLPLELHE	not soluble
GPGSMADSIKKHFQQENEVKDTGCMTSALSYLPIYINTDKLPENMLVGAPLFYPPQMAVLPLSWTDAVGFERSCFITCEGPFPHMTANGKDPHDMSFFFLQYMQRVPFMQSTAERGLPIKQLQDVGLLCCTDAFSHIVTDPAERVVVIFGRNGPYFTSLVITPCTMPEKNVVGNIQLANQISLQDLQKLLDACCPTPLVDEIRLAGTSAGTLQGKLHIACRYGNRVVQFTAASALTVRSARDNEDFIFSLEGDVLAQKRIVFDAATIDALISGKTLDELFSCPGPQCMRVSSLVQLIHMEDLTEISHNLGNGASNGDVTREINLKVSGSRLLLSAGEVSVVFHHAHLGVHFPINSHHGVICEPVLTTDLCLMYYPLGSTAALPNAMMRRVRQLPPTWERSLHTDDALRHNALFHFTDWMRGSVPCITCDLSGFRCAQLYEEKDGMSCRTYVVPLAEEIMVLRWETSTCDWEQHLPHLQKFIDTLHLEVPTA	not soluble
MARQTKPLSVKEIESAKPKEADYVLYDGDGLELLIKSSGSKIWQFRYIRPVTKTRAKKSIGPYPSVTLADARNYRAESRSLLAKQIDPQEHQQEQLRSSLEAKTNTFQLVAERWWNVKKASVTEDYAEDIWRSLERDVFPAIGDVSVTDIKAHTLVQAVQPVQARGALETVRRLCQRINEVMIYAQNTGLIDAVPSVNIGKAFEKPQKKNMPSIRPDQLSQLMQTMRTASISLSTRCLFMWQLLTITRPAEAAEARWEEVDIEAQEWKIPAARMKMNRDHTVPLSDEAIAVLEMMKPLSGNREFIFPSRIKPNQPMNSQTVNASLKRAGFGGVLVSHGLRSIASTALNEQGFPPDAIEAALAHVDKNEVRRAYNRSDYLEQRRPMMQWWANFVMAADRGSMIEGGIKGMKLVG	not soluble
MGSDKIHHHHHHMSIPNAIKHTQTDSALSNIALSNTRDHLLTTGYKLIAQKGFTAVGIKQILDTAGVPKGSFYHYFASKEAFGEAIISHYFTQYKQRLNIIGSQDVSAQQKLYDYFQNWYDTQQSGCDHEKCLVVKLSAEVSDMSEPMRKVLHTGYQQTITWLATQIKAGWVDGSVPHPANVAAESMAKRWYFAWLGASLVTKISQTDTPLAEAWLMTTTAMGR	not soluble
MKLIVAVVQDQDSNRLLKTLTDHNFRVTKLATTGGFLKSGNTTFMIGVEDIRVNKALSLIKENGQKRDQMIAPVSPMGGNADSYVPYPVEVEVGGATVFVLPVDEFHQFLEHHHHHH	soluble
